# Test results: patent US20140030245
# T1: Myc-tagged Chk1 C-terminal fragment C5, O14757
# T1 chain: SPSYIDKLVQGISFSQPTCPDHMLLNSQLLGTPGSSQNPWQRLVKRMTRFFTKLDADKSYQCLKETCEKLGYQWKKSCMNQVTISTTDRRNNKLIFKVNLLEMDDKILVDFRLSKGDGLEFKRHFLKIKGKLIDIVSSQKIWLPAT
# Target: T1, Myc-tagged Chk1 C-terminal fragment C5, …
protein,measurement,value
endogenous Chk1 (protein) MAVPFVEDWDLVQTLGEGAYGEVQLAVNRVTEEAVAVKIVDMKRAVDCPENIKKEICINKMLNHENVVKFYGHRREGNIQYLFLEYCSGGELFDRIEPDIGMPEPDAQRFFHQLMAGVVYLHGIGITHRDIKPENLLLDERDNLKISDFGLATVFRYNNRERLLNKMCGTLPYVAPELLKRREFHAEPVDVWSCGIVLTAMLAGELPWDQPSDSCQEYSDWKEKKTYLNPWKKIDSAPLALLHKILVENPSARITIPDIKKDRWYNKPLKKGAKRPRVTSGGVSESPSGFSKHIQSNLDFSPVNSASSEENVKYSSSQPEPRTGLSLWDTSPSYIDKLVQGISFSQPTCPDHMLLNSQLLGTPGSSQNPWQRLVKRMTRFFTKLDADKSYQCLKETCEKLGYQWKKSCMNQVTISTTDRRNNKLIFKVNLLEMDDKILVDFRLSKGDGLEFKRHFLKIKGKLIDIVSSQKVWLPAT,"phosphorylation of endogenous Chk1 proteins (immunoblot, HeLa)","overexpression of the C5 fragment and to a lesser extent, the entire C-terminus, induced strong phosphorylation of endogenous Chk1 proteins"
same,"phosphorylation of endogenous Chk1 under normal growth conditions (immunoblot, HEK293T)","expression of the C5 fragment, and to a lesser extent, the C6 fragment, but not other small fragments, induced phosphorylation of endogenous Chk1 under normal growth conditions"
